Like-named read-outs stand apart in the source and are kept apart here.

These results are taken from patent US20230265192A1 (GIGAGEN, published 2023).

Test [1] deals with T1, CD27 on CHO cells (UniProt P26842 20-260, limits assumed).
T1 construct: whole, on cells; also called CD27+ CHO cells; irrelevant antigen (CD27)
Put plainly: flow cytometry, mixed CTLA-4+ and CD27+ CHO cells. As for the experimental part: To determine if the CTLA-4 mAbs bound the appropriate antigen expressed on the surface of mammalian cells, CHO cell lines stably expressing human CTLA-4 or an irrelevant antigen (CD27) were generated. Cells (0.5×10⁶ each cell line) were combined and washed with MACS buffer (Dulbecco's Phosphate Buffered Saline [DPBS], with 0.5% bovine serum albumin [BSA], and 2 mM ethylenediaminetetraacetic acid [EDTA]). The cells were incubated with 10 μg/mL anti-CTLA-4 for 30 min at 4° C., then excess, unbound mAbs were removed by washing twice with MACS buffer. The cells were then stained with PE-conjugated anti-Human IgG Fc antibody (clone M1310G05, BioLegend 410720, San Diego, Calif., USA) to detect bound anti-CTLA-4 and with fluorescein isothiocyanate (FITC)-conjugated anti-CD27 (clone 0323, BioLegend 302806, San Diego, Calif., USA) to distinguish the cells expressing the irrelevant antigen. Cells were washed twice with MACS buffer, fixed with 4% paraformaldehyde fixation buffer (BioLegend 420801, San Diego, Calif., USA) for 20 minutes at room temperature and washed twice more with MACS buffer. […] Binding of mAbs to CTLA-4 on the cell surface was determined using LSR II (BD Biosciences, San Jose, Calif., USA) or CytoFLEX LX (Beckman Coulter, Brea. Calif., USA) flow cytometers and analyzed using FlowJo (v10.6.1, BD Biosciences, San Jose, Calif., USA).
A general note: In flow cytometry, cells or beads pass a laser one at a time.

The target of test [2] is T1, CD27 on CHO cells. Put plainly: flow cytometry, 10 µg/mL mAb, geometric MFI. The protocol: (§1) Table 23. In vitro characterization of scFvs reformatted as full-length antibodies. kon, koff, and KD of the indicated CTLA-4 mAbs for soluble human CTLA-4 was determined by SPR (Carterra). Geometric MFI of the indicated CTLA-4 mAbs bound to CTLA-4⁺ or CD27⁺ CHO cells as detected by a secondary human IgG antibody and flow cytometry. Affinity (KD) of the indicated CTLA-4 mAbs for soluble cynomolgus CTLA-4 was determined by a single antigen concentration BLI measurement (Octet). […] Due to constraints on sample size in each Promega bioassay kit, this set of aCTLA-4 mAbs was analyzed using multiple plates (plate letters correspond to Plate A-D in FIG. 20D).
(§2) To determine if the CTLA-4 mAbs bound the appropriate antigen expressed on the surface of mammalian cells, CHO cell lines stably expressing human CTLA-4 or an irrelevant antigen (CD27) were generated. Cells (0.5×10⁶ each cell line) were combined and washed with MACS buffer (Dulbecco's Phosphate Buffered Saline [DPBS], with 0.5% bovine serum albumin [BSA], and 2 mM ethylenediaminetetraacetic acid [EDTA]). The cells were incubated with 10 μg/mL anti-CTLA-4 for 30 min at 4° C., then excess, unbound mAbs were removed by washing twice with MACS buffer. The cells were then stained with PE-conjugated anti-Human IgG Fc antibody (clone M1310G05, BioLegend 410720, San Diego, Calif., USA) to detect bound anti-CTLA-4 and with fluorescein isothiocyanate (FITC)-conjugated anti-CD27 (clone 0323, BioLegend 302806, San Diego, Calif., USA) to distinguish the cells expressing the irrelevant antigen. Cells were washed twice with MACS buffer, fixed with 4% paraformaldehyde fixation buffer (BioLegend 420801, San Diego, Calif., USA) for 20 minutes at room temperature and washed twice more with MACS buffer.

Test [3] addresses T2, human CTLA-4 expressed on the cell surface (human, UniProt P16410 36-223).
T2 construct: CHO cells stably expressing human CTLA-4; also called hCTLA-4; CTLA-4+ CHO cells
Put plainly: flow cytometry, 10 µg/mL mAb, geometric MFI. The protocol:
as §1, §2

Test [4] deals with T3, His-tagged human CTLA-4 (CT4-H5229; Acro Biosystems) (human, UniProt P16410 36-161).
T3 construct: bought soluble protein; also called soluble human CTLA-4; recombinant human CTLA-4; not shown: His tag
T3 sequence (P16410 36-161 limits assumed): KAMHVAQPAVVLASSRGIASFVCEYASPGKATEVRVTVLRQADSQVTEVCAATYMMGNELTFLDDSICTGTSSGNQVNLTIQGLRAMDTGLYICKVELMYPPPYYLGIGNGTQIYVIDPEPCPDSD
Nature of the test: SPR (Carterra). As for the experimental part: (§3) Then, goat anti-Human IgG Fc (Southern Biotech 2047-01) was coupled for 10 minutes at […] in 10 mM Sodim Acetate pH 4.5 (Carterra Inc.). The surface was then deactivated with 1 M ethanolamine pH 8.5 (Carterra Inc.). Running buffer used for the lawn immobilization was HBS-EPC (10 mM HEPES, 150 mM NaCl, 3 mM EDTA, 0.05% Tween 20, pH 7.4; Teknova).
(§4) The sensor chip was then transferred to a continuous flow microspotter (CFM; Carterra Inc.) for array capturing. The mAb supernatants were diluted 50-fold ([…] final concentration) into HBS-EPC with 1 mg/mL BSA. The samples were each captured twice with 15-minute and 4-minute capture steps on the first and second prints, respectively, to create multiple densities, using a […] flow rate. The running buffer in the CFM was also HBS-EPC.
(§5) Next, the sensor chip was loaded onto an SPR reader (MX-96 system; Ibis Technologies) for the kinetic analysis. CTLA-4 was injected at five increasing concentrations in a four-fold dilution series with concentrations of 1.95, 7.8, 31.25, 125, and 500 nM in running buffer (HBS-EPC with 1.0 mg/mL BSA). CTLA-4 injections were 5 minutes with a 15-minute dissociation at […] in a non-regenerative kinetic series. An injection of the goat anti-Human IgG Fc capture antibody at […] was injected at the end of the series to verify the capture level of each mAb. Binding data was double referenced by subtracting an interspot surface and a blank injection and analyzed for ka (on-rate), kd (off-rate), and KD (affinity) using the Kinetic Interaction Tool software (Carterra Inc.).

Test [5] deals with T3, His-tagged human CTLA-4 (CT4-H5229; …). Put plainly: SPR (Carterra). As for the experimental part:
as §3, §4, §5
This is another data set of the same source.

The target of test [6] is T2, human CTLA-4 expressed on the cell …. Nature of the test: cell-based or functional assay.
Test [7] deals with T4, His-tagged cynomolgus CTLA-4 (CT4-C5227; Acro Biosystems) (cynomolgus, UniProt G7PL88 36-161).
T4 construct: also called soluble cynomolgus CTLA-4; cyno CTLA-4
T4 sequence (G7PL88 entry or part of it limits assumed, form in doubt): as the sequence (P16410 36-161 limits assumed) above, with S14N, I18T, L106M counted along it
Put plainly: BLI (Octet). The protocol: (§6) The binding specificity and affinity of each full-length antibody towards CTLA-4 were determined using biolayer interferometry (BLI) and/or surface plasmon resonance (SPR). Anti-cyno CTLA-4 and anti-mouse CTLA-4 affinities were tested using ForteBio (BLI). Anti-human CTLA-4 affinities were measured using Carterra (SPR).
(§7) For BLI, antibodies were loaded onto an Anti-Human IgG Fc (AHC) biosensor using the Octet Red96 system (ForteBio). Loaded biosensors were dipped into antigen dilutions beginning at 300 nM, with 6 serial dilutions at 1:3. Kinetic analysis was performed using a 1:1 binding model and global fitting.
In general terms: Biolayer interferometry detects binding as a change in optical thickness at a sensor tip.

The target in test [8] is mouse CTLA-4 (mouse, UniProt P09793 36-161, limits assumed). Put plainly: BLI (Octet). As for the experimental part: as §6, §7
mouse CTLA-4, sequence (P09793 36-161 limits assumed): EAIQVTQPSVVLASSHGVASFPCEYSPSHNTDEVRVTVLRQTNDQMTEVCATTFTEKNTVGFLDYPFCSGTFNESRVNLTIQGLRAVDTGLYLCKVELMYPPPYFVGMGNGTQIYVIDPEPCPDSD

T2 sequence (P16410 36-223 limits assumed): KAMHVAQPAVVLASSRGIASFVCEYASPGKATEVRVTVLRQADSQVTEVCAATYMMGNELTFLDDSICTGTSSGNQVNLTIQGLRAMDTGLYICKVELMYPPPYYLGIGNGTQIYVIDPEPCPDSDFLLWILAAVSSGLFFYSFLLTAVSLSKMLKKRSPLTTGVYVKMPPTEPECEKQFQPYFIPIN
T1 sequence (P26842 20-260 limits assumed): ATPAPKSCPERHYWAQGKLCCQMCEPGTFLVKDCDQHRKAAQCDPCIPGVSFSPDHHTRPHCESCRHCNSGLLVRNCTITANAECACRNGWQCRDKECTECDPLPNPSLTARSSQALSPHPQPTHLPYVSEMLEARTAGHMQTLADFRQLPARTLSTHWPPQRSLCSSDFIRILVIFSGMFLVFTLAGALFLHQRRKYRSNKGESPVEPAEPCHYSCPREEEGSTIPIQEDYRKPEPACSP

B1: antibody A14 (L14H14), GIGA-564 (antibody, V domains shown)
VH: QVQLVESGGGVVQPGRSLRLSCAASGFTFSSYGMHWVRQAPGTGLEWVAVIWYEGRNKYYADPVKGRFTISRDNSKNTLYLQMNSLRDDDTAVYYCARAGDLGAFDIWGQGTMVTVSSA
VL: not shown
notes: also called aCTLA-4.15
With B1, the binding result in test [1] is on record as “no binding (tested: 10 µg/mL)”. Further, the “MFI of CD27+ CHO cells” value in test [2] was determined as 15.9. Moreover, in test [3], the “MFI of CTLA-4+ CHO cells” value was 717.

B2: antibody A15 (L15H15) (antibody, V domains shown)
VH: QVQLVESGGGVVQPGRSLRLSCAASGFTFRSYGMHWVRQAPGKGLEWVAVIWYDGSNKHYADSVKGRFTISRDNSKNTLYLQMNSLRAEDTAVYYCARNGLIGAFDIWGQGTMVTVSS
VL: not shown
notes: also called aCTLA-4.18
The term Kd denotes the concentration at which binding is half-saturated. Read a low Kd as a tighter complex. By koff is commonly meant a measure of how fast the partners let go of each other. A low value points to a long-lived complex. By kon is commonly meant a measure of how fast the partners come together. A high value points to faster complex formation. On to B2, for which the figures for the Kd in test [4], in test [5] and in test [7] were 10 nM, 10 nM and 2.6 nM, respectively. The koff in test [4] was found to be 0.00073 s⁻¹. Moreover, in test [4], the kon turned out to be 70000 M⁻¹ s⁻¹. Further, the “Promega assay % inhibition” value in test [6] amounted to 0%.

B3: antibody A16 (L16H16) (antibody, V domains shown)
VH: QVQLVESGGGVVQPGRSLRLSCAASGFTFSSYGIHWVRQAPGKGLEWVAVIWYDGSNKYYADSVKGRFTISRDNSKNTLYLQMNSLRAEDTAVYYCARGSLLGPFDYWGQGTLVTVSS
VL: DIQMTQSPSSLSASVGDRVTITCRASQGISNYLAWYQQKPGKVPKLLIYAASTLQSGVPSRFSGSGSGTDFTLTISSLQPEDVATYYCQNYNSAPWTFGQGTKVEIK
notes: also called aCTLA-4.5
Regarding B3, the Kd in test [4] amounted to 23 nM; in test [5] it was 23 nM; in test [7] it was 2.8 nM. The molecule further came in with a koff in test [4] of 0.00072 s⁻¹. In test [4], this molecule returned a kon of 31000 M⁻¹ s⁻¹. In addition, in test [6], the “Promega assay % inhibition” value worked out at 0%.

B4: antibody A12 (L12H12) (antibody, V domains shown)
VH: QVQLVESGGGVVQPGRSLRLSCAASGFTFSSYGMHWVRQAPGKGLEWVAVIWYDGSNKYYADSVKGRFTFSRDNSKNTLYLQMNSLRAEDTAVYYCARGGLMGAFDYWGQGTLVTVSS
VL: not shown
notes: also called aCTLA-4.12; CTLA4.A12
In the case of B4, the binding result in test [1] was “no binding (tested: 10 µg/mL)”. For the same molecule, the “MFI of CD27+ CHO cells” value in test [2] amounted to 17.1.

B5: antibody A18 (L18H18) (antibody, V domains shown)
VH: QVQLVESGGGVVQPGRSLRLSCAASGFTFSSYGMHWVRQAPGKGLEWVAVIWYDGSNKFYADSVKGRFTISSDNSKNTLYLQMNSLRAEDTAVYYCARGGHLGSFDYWGQGTLVTVSS
VL: EIVLTQSPGTLSLSPGERATLSCRASQSVSYLAWYQQKPGQAPRLLIYGASSRATGIPDRFSGSGSGTDFTLTISRLEPEDFAVYYCQQYGSSPWTFGQGTKVEIK
notes: also called aCTLA-4.11
Take B5: the binding result in test [1] is on record as “no binding (tested: 10 µg/mL)”. The “MFI of CD27+ CHO cells” value in test [2] was 14.8.

B6: antibody A27 (L27H27) (antibody, V domains shown)
VH: QVQLVQSGAEVKKPGASVKVSCKASGYTFTSYGISWVRQAPGQGLEWMGWISAYNGNTNYAQKLQGRVTMTTDTSTSTAYMELRSLRSDDTAVYYCGRWVRGVEYWGQGTLVTVSS
VL: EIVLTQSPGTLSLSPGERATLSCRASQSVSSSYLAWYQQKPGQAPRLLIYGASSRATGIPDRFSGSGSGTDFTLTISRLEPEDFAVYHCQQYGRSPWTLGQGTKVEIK
notes: also called aCTLA-4.8
As for B6, in test [4], the affinity, expressed as Kd, was 120 nM; the koff was determined as 0.0036 s⁻¹; the kon amounted to 31000 M⁻¹ s⁻¹. Moreover, in test [5], binding was put at a Kd of 120 nM.

B7: antibody A17 (L17H17) (antibody, V domains shown)
VH: EVQLVESGGGLVQPGGSLRLSCAASGFTFSNYAMSWVRQAPGKGLEWVSAISGGGLSTYYADSVKGRFTISRDNSKNTLYLQMNSLRAEDTAVYYCAKDLLWLGFDYWGQGTLVTVSS
VL: DIQMTQSPSSLSASVGDRVTITCRASQAIRNDLGWYQQKPGKAPKRLIYAASSLQSGVPPRFSGSGSGTEFTLTISSLQPEDFATYYCLQHNSYPLTFGGGTKVEIK
notes: also called aCTLA-4.17
For B7, the Kd in test [4] was found to be 51 nM; in test [5], 51 nM; in test [7], 6.3 nM. For the same molecule, the koff in test [4] was found to be 0.0034 s⁻¹. Moreover, in test [4], the kon came to 66000 M⁻¹ s⁻¹. In test [6], the “Promega assay % inhibition” value was found to be 0%.

B8: antibody A21 (L21H21) (antibody, V domains shown)
VH: QVQLVESGGGVVQPGRSLRLSCAASGFTFSSYGMHWVRQAPGKGLEWVAVIWYDGNNKYYADSVKGRFTISRDNSKNTLYLHMNSLRADDTAVYYCARMLRGAPYYYGMDVWGQGTTVTVSS
VL: not shown
notes: also called aCTLA-4.10
On to B8, for which, in test [4], the Kd came to 31 nM, the koff amounted to 0.00055 s⁻¹ and the kon is 18000 M⁻¹ s⁻¹. The same molecule came in with a Kd in test [5] of 31 nM.

B9: Ipilimumab analog (antibody, V domains shown)
VH: QVQLVESGGGVVQPGRSLRLSCAASGFTFSSYTMHWVRQAPGKGLEWVTFISYDGNNKYYADSVKGRFTISRDNSKNTLYLQMNSLRAEDTAIYYCARTGWLGPFDYWGQGTLVTVSS
VL: not shown
notes: also called ipi analog; in-house produced ipilimumab
In the case of B9, the binding result in test [8] is given as “no binding (tested: 300 nM)”.

B10: antibody A26 (L26H26) (antibody, V domains shown)
VH: QVQLVQSGAEVKKPGASVKVSCKASDYTFTYYGISWVRQAPGQGLEWMGWISAYNGNTNYAQKLQGRVTMTTDTSTNTAYLELRSLRSDDTAVYYCARDYYDSSGYFDYWGQGTLVTVSS
VL: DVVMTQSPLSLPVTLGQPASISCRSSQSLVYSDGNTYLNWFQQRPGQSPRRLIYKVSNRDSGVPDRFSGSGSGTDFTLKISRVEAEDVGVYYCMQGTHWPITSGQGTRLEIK
notes: also called aCTLA-4.20
In test [4], B10 showed a Kd of 74 nM, a koff of 0.00026 s⁻¹ and a kon of 3500 M⁻¹ s⁻¹. Besides, in test [5], the Kd came to 74 nM.
